Data on one molecule can be found in publication doi:10.1101/2020.12.20.423689 (bioRxiv, 2020).

The assay deals with mitoribosomal protein uL12m (human, UniProt P52815 37-198). The experiment in a line: cryo-EM structure.

B1: human mitochondrial elongation factor G2 (EF-G2mt) (natural protein)
chain: MLTNLRIFAMSHQTIPSVYINNICCYKIRASLKRLKPHVPLGRNCSSLPGLIGNDIKSLHSIINPPIAKIRNIGIMAHIDAGKTTTTERILYYSGYTRSLGDVDDGDTVTDFMAQERERGITIQSAAVTFDWKGYRVNLIDTPGHVDFTLEVERCLRVLDGAVAVFDASAGVEAQTLTVWRQADKHNIPRICFLNKMDKTGASFKYAVESIREKLKAKPLLLQLPIGEAKTFKGVVDVVMKEKLLWNCNSNDGKDFERKPLLEMNDPELLKETTEARNALIEQVADLDDEFADLVLEEFSENFDLLPAEKLQTAIHRVTLAQTAVPVLCGSALKNKGIQPLLDAVTMYLPSPEERNYEFLQWYKDDLCALAFKVLHDKQRGPLVFMRIYSGTIKPQLAIHNINGNCTERISRLLLPFADQHVEIPSLTAGNIALTVGLKHTATGDTIVSSKSSALAAARRAEREGEKKHRQNNEAERLLLAGVEIPEPVFFCTIEPPSLSKQPDLEHALKCLQREDPSLKVRLDPDSGQTVLCGMGELHIEIIHDRIKREYGLETYLGPLQVAYRETILNSVRATDTLDRTLGDKRHLVTVEVEARPIETSSVMPVIEFEYAESINEGLLKVSQEAIENGIHSACLQGPLLGSPIQDVAITLHSLTIHPGTSTTMISACVSRCVQKALKKADKQVLEPLMNLEVTVARDYLSPVLADLAQRRGNIQEIQTRQDNKVVIGFVPLAEIMGYSTVLRTLTSGSATFALELSTYQAMNPQDQNTLLNRRSGLT
B1: the binding result was “binds”.
